Assay results taken from the Immune Epitope Database (IEDB).

Assays:
HLA-B*35:01 = test: IEDB peptide-MHC binding, purified MHC/competitive/radioactivity; filed as Kd, often an IC50 or EC50 that approximates it; ≥ and ≤ were set here for values at or beyond the usual limits of such assays; details: source organism: Dengue virus 4 Philippines/H241/1956
HLA-B*53:01 = test: as above; details: source organism: Dengue virus 4 Philippines/H241/1956
HLA-B*07:02 = test: as above
HLA-B*08:01 = test: as above
HLA-A*32:01 = test: as above
HLA-A*02:01 = test: IEDB peptide-MHC binding, purified MHC/competitive/fluorescence; ≥ and ≤ were set here for values at or beyond the usual limits of such assays; details: source organism: Zaire ebolavirus
HLA-A*24:02 [1] = test: as above
HLA-A*68:02 = test: IEDB peptide-MHC binding, purified MHC/competitive/radioactivity; filed as Kd, often an IC50 or EC50 that approximates it; ≥ and ≤ were set here for values at or beyond the usual limits of such assays
HLA-B*51:01 = test: IEDB peptide-MHC binding, purified MHC/competitive/fluorescence; filed as Kd, often an IC50 or EC50 that approximates it; ≥ and ≤ were set here for values at or beyond the usual limits of such assays; details: source organism: Vibrio vulnificus YJ016
HLA-B*15:01 [2] = test: IEDB peptide-MHC binding, purified MHC/competitive/radioactivity; filed as Kd, often an IC50 or EC50 that approximates it; ≥ and ≤ were set here for values at or beyond the usual limits of such assays
HLA-A*02:06 = test: as above
HLA-A*01:01 = test: as above; details: source organism: Dengue virus 4 Philippines/H241/1956
HLA-A*23:01 = test: as above; details: source organism: Dengue virus 4 Philippines/H241/1956
HLA-A*24:02 [3] = test: as above; details: source organism: Dengue virus 4 Philippines/H241/1956
HLA-B*18:01 [4] = test: IEDB peptide-MHC binding, purified MHC/direct/fluorescence; filed as Kd, often an IC50 or EC50 that approximates it; ≥ and ≤ were set here for values at or beyond the usual limits of such assays
HLA-B*40:01 = test: as above
HLA-B*44:02 = test: as above; details: source organism: Influenza A virus (A/swine/Hong Kong/2106/98(H9N2))
HLA-A*26:01 [5] = test: IEDB peptide-MHC binding, purified MHC/competitive/radioactivity; filed as Kd, often an IC50 or EC50 that approximates it; ≥ and ≤ were set here for values at or beyond the usual limits of such assays; details: source organism: Dengue virus 3 Martinique/1243/1999
HLA-B*39:01 = test: IEDB peptide-MHC binding, purified MHC/competitive/fluorescence; filed as Kd, often an IC50 or EC50 that approximates it; ≥ and ≤ were set here for values at or beyond the usual limits of such assays
HLA-B*15:01 [6] = test: as above; details: source organism: Yersinia enterocolitica
HLA-A*26:01 [7] = test: as above; details: source organism: Yersinia enterocolitica
HLA-B*57:01 = test: as above; details: source organism: Yersinia enterocolitica
HLA-B*46:01 = test: as above; details: source organism: Yersinia enterocolitica
HLA-B*27:03 = test: as above; details: source organism: Yersinia enterocolitica
HLA-B*18:01 [8] = test: as above; details: source organism: Yersinia enterocolitica
[9] = source organism: Dengue virus 4 Philippines/H241/1956
[10] = source organism: Vaccinia virus WR
[11] = source organism: Dengue virus 2 Jamaica/1409/1983
[12] = source organism: Zaire ebolavirus
[13] = source organism: Vaccinia virus Copenhagen
[14] = source organism: Dengue virus 3 Martinique/1243/1999
[15] = source organism: Influenza A virus (A/swine/Hong Kong/2106/98(H9N2))
[16] = source organism: Orthohantavirus hantanense

NPGFALLAGF
Kd (HLA-B*35:01): 5440 nM
Kd (HLA-B*53:01): 1520 nM
Kd (HLA-B*07:02; [9]): 233 nM

SLNFRFENV
Kd (HLA-B*08:01; [10]): 586 nM

IIFDIYFAI
Kd (HLA-A*32:01; [10]): 0.934 nM

VVAMRHLSL
Kd (HLA-B*08:01; [10]): 0.976 nM

MRRGDLPVWL
Kd (HLA-B*08:01; [11]): 5800 nM

KLNKMTVEL
Kd (HLA-A*32:01; [10]): 1.68 nM

SPARLASAIL
Kd (HLA-B*07:02; [9]): 5.75 nM

RSNTTGKLI
IC50 (HLA-A*02:01): ≥ 805000 nM
IC50 (HLA-A*24:02 [1]; [12]): 44100 nM

NKKYRCMAL
Kd (HLA-B*08:01; [10]): 1.87 nM

ARFSGLLIV
IC50 (HLA-A*02:01): ≥ 461000 nM
IC50 (HLA-A*24:02 [1]; [12]): ≥ 267000 nM

TSIGKALHQV
Kd (HLA-A*68:02; [11]): 10.4 nM

LPVLSLNWV
Kd (HLA-B*51:01): 278 nM

SIRFHIKEL
Kd (HLA-B*08:01; [10]): 0.453 nM

MIFFNPVSF
Kd (HLA-B*15:01 [2]; [13]): 9.43 nM
Kd (HLA-A*32:01; [13]): 0.462 nM

DLSDQIAEL
Kd (HLA-A*68:02; source organism: Homo sapiens): 486 nM

LTIFSTIIF
Kd (HLA-A*32:01; [13]): 264 nM

MAWRTIMAV
Kd (HLA-B*35:01): 765 nM
Kd (HLA-A*68:02; [9]): 17 nM

MVAGGLLLA
Kd (HLA-A*02:06; [9]): 17.6 nM
Kd (HLA-A*68:02; [9]): 55.6 nM

DDDDDIPFP
IC50 (HLA-A*24:02 [1]; [12]): ≥ 124000 nM

TTANWLWALL
Kd (HLA-A*01:01): 12300 nM
Kd (HLA-A*68:02; [9]): 4.5 nM

RLKQLKRQL
Kd (HLA-A*02:06; source organism: Homo sapiens): ≥ 61900 nM
Kd (HLA-A*68:02; source organism: Homo sapiens): 8310 nM

KLMSGKDVF
Kd (HLA-B*15:01 [2]; [14]): 5.6 nM
Kd (HLA-A*32:01; [14]): 507 nM

VMLLVHYAI
Kd (HLA-A*23:01): 95.5 nM
Kd (HLA-A*32:01; [9]): 11.6 nM
Kd (HLA-A*24:02 [3]): 54.4 nM

IMKIGIGVLL
Kd (HLA-B*08:01; source organism: Dengue virus 3 Singapore/8120/1995): 4310 nM

YHPVYILPY
Kd (HLA-B*18:01 [4]; source organism: Campylobacter jejuni RM1221): 1430 nM

GENMAPEKV
Kd (HLA-B*18:01 [4]; [15]): ≥ 20000 nM
Kd (HLA-B*40:01; [15]): 168 nM
Kd (HLA-B*44:02): ≥ 20000 nM

YLRDHFYNL
Kd (HLA-B*08:01; [10]): 8.3 nM

GPWHLGKLEM
Kd (HLA-B*07:02; [11]): 59.3 nM

SHRPVVLTG
IC50 (HLA-A*24:02 [1]; source organism: Variola virus): ≥ 71300 nM

ETQHGTILI
Kd (HLA-A*26:01 [5]): 12200 nM
Kd (HLA-A*68:02; [14]): 21.5 nM

SKRTKSKIL
Kd (HLA-B*08:01; [10]): 140 nM

MQESGVSKL
Kd (HLA-B*39:01; source organism: Bacillus anthracis str. A0488): 11.4 nM

RTVSVMFFI
Kd (HLA-B*15:01 [6]): ≥ 20000 nM
Kd (HLA-A*26:01 [7]): ≥ 20000 nM
Kd (HLA-B*57:01): 1240 nM
Kd (HLA-B*46:01): ≥ 20000 nM
Kd (HLA-B*27:03): ≥ 20000 nM
Kd (HLA-B*18:01 [8]): ≥ 20000 nM
Kd (HLA-B*39:01; source organism: Yersinia enterocolitica): ≥ 20000 nM

KPIDDRFAT
Kd (HLA-B*07:02; source organism: Dengue virus 1 Brazil/97-11/1997): 49.3 nM

EEAIGKVLL
Kd (HLA-B*18:01 [4]; [16]): 1720 nM
Kd (HLA-B*40:01; [16]): 13.7 nM

SNKYRIKSV
Kd (HLA-B*08:01; [10]): 2.66 nM

LLFFLALSI
Kd (HLA-B*15:01 [2]; [13]): 134 nM
Kd (HLA-A*32:01; [13]): 500 nM
